{"source": "paper PMC9262799", "about": "“The first step into phenolic metabolism in the hornwort Anthoceros agrestis: molecular and biochemical characterization of two phenylalanine ammonia-lyase isoforms” (Planta, 2022)", "assay_type_in_all_cases": "biochemical, Anthoceros agrestis", "key": {"N[C@@H](Cc1ccccc1)C(=O)O [1]": {"tested_on": "T1, N[C@@H](Cc1ccccc1)C(=O)O", "T1 construct": "full-length, 752 residues (81,895 Da), N-terminal 6xHis-tag kept (84,058 Da with tag), pET15b, E. coli SoluBL21, Ni-NTA; cDNA from suspension culture; PALs mostly homotetramers, oligomer not measured here", "test": "HPLC of t-cinnamic acid formed, Michaelis-Menten fit", "settings": "boric acid/sodium tetraborate buffer pH 8.8, 36 °C, 10 min, 1-500 µM Phe", "source_text": "HPLC of t-cinnamic acid formed, Michaelis-Menten fit on AaPAL1"}, "[2]": {"tested_on": "T2, N[C@@H](Cc1ccc(O)cc1)C(=O)O", "T2 construct": "full-length, 752 residues (81,895 Da), N-terminal 6xHis-tag kept (84,058 Da with tag), pET15b, E. coli SoluBL21, Ni-NTA; cDNA from suspension culture; PALs mostly homotetramers, oligomer not measured here", "test": "HPLC of 4-coumaric acid formed, Michaelis-Menten fit", "settings": "boric acid/sodium tetraborate buffer pH 8.8, 36 °C, 10 min, 0-9.6 mM Tyr", "source_text": "HPLC of 4-coumaric acid formed, Michaelis-Menten fit on AaPAL1"}, "[3]": {"tested_on": "T3, N[C@@H](Cc1ccc(O)cc1)C(=O)O", "T3 construct": "full-length, 753 residues (81,704 Da), N-terminal 6xHis-tag kept (83,867 Da with tag), pET15b, E. coli SoluBL21, Ni-NTA; cDNA from suspension culture; PALs mostly homotetramers, oligomer not measured here", "test": "HPLC of 4-coumaric acid formed, Michaelis-Menten fit", "settings": "boric acid/sodium tetraborate buffer pH 8.8, 36 °C, 15 min, 0-9.6 mM Tyr", "source_text": "HPLC of 4-coumaric acid formed, Michaelis-Menten fit on AaPAL2"}, "N[C@@H](Cc1ccccc1)C(=O)O [4]": {"tested_on": "T4, N[C@@H](Cc1ccccc1)C(=O)O", "T4 construct": "full-length, 753 residues (81,704 Da), N-terminal 6xHis-tag kept (83,867 Da with tag), pET15b, E. coli SoluBL21, Ni-NTA; cDNA from suspension culture; PALs mostly homotetramers, oligomer not measured here", "test": "HPLC of t-cinnamic acid formed, Michaelis-Menten fit", "settings": "boric acid/sodium tetraborate buffer pH 8.8, 36 °C, 4 min, 1-500 µM Phe", "source_text": "HPLC of t-cinnamic acid formed, Michaelis-Menten fit on AaPAL2"}}}
{"substance": "AaPAL1 (Anthoceros agrestis)", "values": [{"measurement": "Km", "setting": "N[C@@H](Cc1ccccc1)C(=O)O [1]", "result": "39 ± 15", "unit": "µM"}, {"measurement": "Vmax", "setting": "N[C@@H](Cc1ccccc1)C(=O)O [1]", "result": 0.252, "unit": "µmol/min/mg"}, {"measurement": "kcat", "setting": "N[C@@H](Cc1ccccc1)C(=O)O [1]", "result": 0.353, "unit": "s⁻¹"}, {"measurement": "kcat/Km", "setting": "N[C@@H](Cc1ccccc1)C(=O)O [1]", "result": 9050, "unit": "M⁻¹ s⁻¹"}, {"measurement": "Km", "setting": "[2]", "result": "3308 ± 987", "unit": "µM"}, {"measurement": "Vmax", "setting": "[2]", "result": 0.058, "unit": "µmol/min/mg"}, {"measurement": "kcat", "setting": "[2]", "result": 0.081, "unit": "s⁻¹"}, {"measurement": "kcat/Km", "setting": "[2]", "result": 24.5, "unit": "M⁻¹ s⁻¹"}]}
{"substance": "AaPAL2 (Anthoceros agrestis)", "values": [{"measurement": "Km", "setting": "[3]", "result": "3526 ± 617", "unit": "µM"}, {"measurement": "Vmax", "setting": "[3]", "result": 0.0296, "unit": "µmol/min/mg"}, {"measurement": "kcat", "setting": "[3]", "result": 0.041, "unit": "s⁻¹"}, {"measurement": "kcat/Km", "setting": "[3]", "result": 11.6, "unit": "M⁻¹ s⁻¹"}, {"measurement": "Km", "setting": "N[C@@H](Cc1ccccc1)C(=O)O [4]", "result": "18 ± 4", "unit": "µM"}, {"measurement": "Vmax", "setting": "N[C@@H](Cc1ccccc1)C(=O)O [4]", "result": 0.206, "unit": "µmol/min/mg"}, {"measurement": "kcat", "setting": "N[C@@H](Cc1ccccc1)C(=O)O [4]", "result": 0.288, "unit": "s⁻¹"}, {"measurement": "kcat/Km", "setting": "N[C@@H](Cc1ccccc1)C(=O)O [4]", "result": 16000, "unit": "M⁻¹ s⁻¹"}]}
